Molecular target: T1, FcγRIa extracellular domain with C-terminal His tag (human, UniProt P12314 16-292)
T1 construct: extracellular domain; also called FcgRI; CD64; not shown: His tag at the C terminus
Test: SPR Biacore, relative FcγRIa binding vs GpH7-B3/GpL16-k0

T1 sequence (P12314 16-292): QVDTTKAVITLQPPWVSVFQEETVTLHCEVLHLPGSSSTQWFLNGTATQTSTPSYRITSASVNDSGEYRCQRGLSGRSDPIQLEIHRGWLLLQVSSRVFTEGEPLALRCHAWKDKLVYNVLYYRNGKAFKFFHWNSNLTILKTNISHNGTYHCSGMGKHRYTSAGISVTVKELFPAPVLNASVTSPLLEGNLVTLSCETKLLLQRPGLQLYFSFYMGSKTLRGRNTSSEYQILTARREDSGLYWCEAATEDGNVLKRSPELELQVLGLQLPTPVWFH

| Binder | Ho/Con_1a |
| --- | --- |
| GpH7-B3 variant S324_12R/GpL16-k0 (antibody, human IgG1, kappa, mutation in both H chains; also called Ho Ab S324_12R; S324R) heavy: not shown light: DIVMTQSPLSLPVTPGEPASISCQASESLVHSNRNTYLHWYLQKPGQSPQLLIYKVSNRFSGVPDRFSGSGSGTDFTLKISRVEAEDVGVYYCSQNTHVPPTFGQGTKVEIERTVAAPSVFIFPPSDEQLKSGTASVVCLLNNFYPREAKVQWKVDNALQSGNSQESVTEQDSKDSTYSLSSTLTLSKADYEKHKVYACEVTHQGLSSPVTKSFNRGEC | 101 % of HoCon Ab (=100) |
| GpH7-B3 variant S324_18N/GpL16-k0 (antibody, human IgG1, kappa, mutation in both H chains; also called Ho Ab S324_18N; S324N) heavy: not shown light: DIVMTQSPLSLPVTPGEPASISCQASESLVHSNRNTYLHWYLQKPGQSPQLLIYKVSNRFSGVPDRFSGSGSGTDFTLKISRVEAEDVGVYYCSQNTHVPPTFGQGTKVEIERTVAAPSVFIFPPSDEQLKSGTASVVCLLNNFYPREAKVQWKVDNALQSGNSQESVTEQDSKDSTYSLSSTLTLSKADYEKHKVYACEVTHQGLSSPVTKSFNRGEC | 111 % of HoCon Ab (=100) |
| GpH7-B3 variant S324_14T/GpL16-k0 (antibody, human IgG1, kappa, mutation in both H chains; also called Ho Ab S324_14T; S324T) heavy: not shown light: DIVMTQSPLSLPVTPGEPASISCQASESLVHSNRNTYLHWYLQKPGQSPQLLIYKVSNRFSGVPDRFSGSGSGTDFTLKISRVEAEDVGVYYCSQNTHVPPTFGQGTKVEIERTVAAPSVFIFPPSDEQLKSGTASVVCLLNNFYPREAKVQWKVDNALQSGNSQESVTEQDSKDSTYSLSSTLTLSKADYEKHKVYACEVTHQGLSSPVTKSFNRGEC | 112 % of HoCon Ab (=100) |
| GpH7-B3 variant S324_16H/GpL16-k0 (antibody, human IgG1, kappa, mutation in both H chains; also called Ho Ab S324_16H; S324H) heavy: not shown light: DIVMTQSPLSLPVTPGEPASISCQASESLVHSNRNTYLHWYLQKPGQSPQLLIYKVSNRFSGVPDRFSGSGSGTDFTLKISRVEAEDVGVYYCSQNTHVPPTFGQGTKVEIERTVAAPSVFIFPPSDEQLKSGTASVVCLLNNFYPREAKVQWKVDNALQSGNSQESVTEQDSKDSTYSLSSTLTLSKADYEKHKVYACEVTHQGLSSPVTKSFNRGEC | 111 % of HoCon Ab (=100) |
| GpH7-B3 variant S324_15Y/GpL16-k0 (antibody, human IgG1, kappa, mutation in both H chains; also called Ho Ab S324_15Y; S324Y) heavy: not shown light: DIVMTQSPLSLPVTPGEPASISCQASESLVHSNRNTYLHWYLQKPGQSPQLLIYKVSNRFSGVPDRFSGSGSGTDFTLKISRVEAEDVGVYYCSQNTHVPPTFGQGTKVEIERTVAAPSVFIFPPSDEQLKSGTASVVCLLNNFYPREAKVQWKVDNALQSGNSQESVTEQDSKDSTYSLSSTLTLSKADYEKHKVYACEVTHQGLSSPVTKSFNRGEC | 112 % of HoCon Ab (=100) |

Results, then the binder that gave them:

| Ho/Con_1a | Binder |
| --- | --- |
| 103 % of HoCon Ab (=100) | GpH7-B3 variant S337_02A/GpL16-k0 (antibody, human IgG1, kappa, mutation in both H chains; also called Ho Ab S337_02A; S337A) heavy: not shown light: DIVMTQSPLSLPVTPGEPASISCQASESLVHSNRNTYLHWYLQKPGQSPQLLIYKVSNRFSGVPDRFSGSGSGTDFTLKISRVEAEDVGVYYCSQNTHVPPTFGQGTKVEIERTVAAPSVFIFPPSDEQLKSGTASVVCLLNNFYPREAKVQWKVDNALQSGNSQESVTEQDSKDSTYSLSSTLTLSKADYEKHKVYACEVTHQGLSSPVTKSFNRGEC |
| 111 % of HoCon Ab (=100) | GpH7-B3 variant S324_19Q/GpL16-k0 (antibody, human IgG1, kappa, mutation in both H chains; also called Ho Ab S324_19Q; S324Q) heavy: not shown light: DIVMTQSPLSLPVTPGEPASISCQASESLVHSNRNTYLHWYLQKPGQSPQLLIYKVSNRFSGVPDRFSGSGSGTDFTLKISRVEAEDVGVYYCSQNTHVPPTFGQGTKVEIERTVAAPSVFIFPPSDEQLKSGTASVVCLLNNFYPREAKVQWKVDNALQSGNSQESVTEQDSKDSTYSLSSTLTLSKADYEKHKVYACEVTHQGLSSPVTKSFNRGEC |
| 112 % of HoCon Ab (=100) | GpH7-B3 variant S324_20W/GpL16-k0 (antibody, human IgG1, kappa, mutation in both H chains; also called Ho Ab S324_20W; S324W) heavy: not shown light: DIVMTQSPLSLPVTPGEPASISCQASESLVHSNRNTYLHWYLQKPGQSPQLLIYKVSNRFSGVPDRFSGSGSGTDFTLKISRVEAEDVGVYYCSQNTHVPPTFGQGTKVEIERTVAAPSVFIFPPSDEQLKSGTASVVCLLNNFYPREAKVQWKVDNALQSGNSQESVTEQDSKDSTYSLSSTLTLSKADYEKHKVYACEVTHQGLSSPVTKSFNRGEC |
| 102 % of HoCon Ab (=100) | GpH7-B3 variant S337_01G/GpL16-k0 (antibody, human IgG1, kappa, mutation in both H chains; also called Ho Ab S337_01G; S337G) heavy: not shown light: DIVMTQSPLSLPVTPGEPASISCQASESLVHSNRNTYLHWYLQKPGQSPQLLIYKVSNRFSGVPDRFSGSGSGTDFTLKISRVEAEDVGVYYCSQNTHVPPTFGQGTKVEIERTVAAPSVFIFPPSDEQLKSGTASVVCLLNNFYPREAKVQWKVDNALQSGNSQESVTEQDSKDSTYSLSSTLTLSKADYEKHKVYACEVTHQGLSSPVTKSFNRGEC |

Source: US20180155451A1 (published 2018)
